Assay results from the supplement of paper PMC10065799, “High-throughput profiling of sequence recognition by tyrosine kinases and SH2 domains using bacterial peptide display” (eLife, 2023).

The sequences below were run on c-Src (assay: phosphorylation enrichment, bacterial display (enrichment ratio); higher = better substrate or ligand; peptides without Tyr show the background).
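Wherever SH2 binding enrichment of the phosphorylated peptide, bacterial display is given: peptide library displayed on the E. coli surface as eCPX fusions, selected cells deep-sequenced, score is each peptide's frequency after selection divided by its frequency in the input.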
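Wherever phosphorylation enrichment, bacterial display is given: 11-residue human phosphosite peptides and single-mutation variants displayed on the E. coli surface, counted by deep sequencing, each peptide's frequency after selection divided by its frequency in the unselected input library; frequency after pTyr selection over input frequency; kinase dosed for 20-30% of maximal phosphorylation in three min.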

Sequence | phosphorylation enrichment
RSFSPCDFQPC [TNS1_Y796_Y796C_YF] | 0.583
GESVSYLFSHV [PRPS1_Y311] | 0.431
ASELGYVFQAI [UROD_Y133] | 0.423
GFEVVYVTEPI [HSP90AB1_Y512_M513V] | 0.591
FKIFRYTLNDN [FN1_Y1975_L1974R_YF] | 0.36
SVTCTYSPALT [TP53_Y126_N131T] | 0.741
AALKLYHVSDS [VIL1_Y256] | 0.417
TFHNTYHSQMR [IL1RAPL1_Y615] | 0.5
DGLASYLDKVR [KRT12_Y139_R135G] | 0.414
LSIQTYSALNF [DES_Y423_P419S] | 5.21
TPLSAYQIPRT [GAB2_Y324] | 0.435
ADNQRYAFMPL [TMEM87B_Y460_N456D] | 0.452
TGILLYGLASR [QARS1_Y57] | 0.765
TVLEPYADPYY [ZC3H18_Y367] | 2.44
WQQQSYLDSGS [CTNNB1_Y30_I35S] | 0.363
DPHQQYFIAMD [TBX15_Y159_YF] | 0.637
VMIYAYLLHRG [PTEN_Y138_C136Y] | 0.46

Sequence | phosphorylation enrichment
SGPRRYNIAAL [TTR_Y125_T126N] | 0.409
EQLRAYLEGEC [HLA-C_Y183_T187E] | 0.465
HQNGTYGLHQD [SGSH_Y89_M88T] | 0.599
KYVKMCDNHQL [MYO9A_Y203_Y203C] | 0.429
RLLVLYPWTQR [HBB_Y36_V35L] | 0.366
IGMSSYVMLAS [GGCX_Y301_F299S] | 0.546
DTCPPYVLSQV [GJB4_Y237_G242V] | 0.606
TGTQLYGRFGS [ITGA2B_Y384] | 7.68
NPSYNYEIVNQ [DYNC1H1_Y3379_R3384Q] | 0.506
SFLSYYTSHVQ [NEFL_Y443_P440L] | 0.936
DDKQPYEKKAE [HMGB1_Y144_A149E] | 0.43
IRTDAYVQAMT [RPE65_Y89_R91Q] | 0.446
MSIWPYLQKID [MFSD8_Y63] | 0.323
NGRTGYVLQPE [PLCG2_Y1036] | 0.416
DGKFSYLKVGH [GRM3_Y480_G475D_YF] | 0.411
YRIGPYQPNVP [MATR3_Y784] | 0.402

What follows are sequences tested against Grb2 SH2 (UniProt P62993) (assay: SH2 binding enrichment of the phosphorylated peptide, bacterial display (enrichment ratio); higher = better substrate or ligand; peptides without Tyr show the background).
Sequence of Grb2 SH2 (P62993 whole entry, looked up): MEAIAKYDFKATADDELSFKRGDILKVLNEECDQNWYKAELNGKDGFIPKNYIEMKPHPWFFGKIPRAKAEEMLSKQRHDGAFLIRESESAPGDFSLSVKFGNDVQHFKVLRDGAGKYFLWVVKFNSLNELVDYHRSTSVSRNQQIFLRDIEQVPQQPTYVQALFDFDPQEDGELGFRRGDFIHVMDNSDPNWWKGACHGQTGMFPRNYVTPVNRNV

Sequence | SH2 binding enrichment
RSFSPCDFQPC [TNS1_Y796_Y796C_YF] | 0.945
GESVSYLFSHV [PRPS1_Y311] | 0.734
ASELGYVFQAI [UROD_Y133] | 0.986
GFEVVYVTEPI [HSP90AB1_Y512_M513V] | 0.802
FKIFRYTLNDN [FN1_Y1975_L1974R_YF] | 1.02
SVTCTYSPALT [TP53_Y126_N131T] | 0.666
AALKLYHVSDS [VIL1_Y256] | 0.613
TFHNTYHSQMR [IL1RAPL1_Y615] | 0.872
DGLASYLDKVR [KRT12_Y139_R135G] | 0.872
LSIQTYSALNF [DES_Y423_P419S] | 0.824
TPLSAYQIPRT [GAB2_Y324] | 1.04
ADNQRYAFMPL [TMEM87B_Y460_N456D] | 1.02
TGILLYGLASR [QARS1_Y57] | 0.855
TVLEPYADPYY [ZC3H18_Y367] | 0.773
WQQQSYLDSGS [CTNNB1_Y30_I35S] | 0.733
DPHQQYFIAMD [TBX15_Y159_YF] | 0.917
VMIYAYLLHRG [PTEN_Y138_C136Y] | 1.34

Sequence | SH2 binding enrichment
SGPRRYNIAAL [TTR_Y125_T126N] | 0.556
EQLRAYLEGEC [HLA-C_Y183_T187E] | 0.783
HQNGTYGLHQD [SGSH_Y89_M88T] | 1.04
KYVKMCDNHQL [MYO9A_Y203_Y203C] | 1.03
RLLVLYPWTQR [HBB_Y36_V35L] | 1.77
IGMSSYVMLAS [GGCX_Y301_F299S] | 0.771
DTCPPYVLSQV [GJB4_Y237_G242V] | 0.77
TGTQLYGRFGS [ITGA2B_Y384] | 0.779
NPSYNYEIVNQ [DYNC1H1_Y3379_R3384Q] | 0.736
SFLSYYTSHVQ [NEFL_Y443_P440L] | 1.17
DDKQPYEKKAE [HMGB1_Y144_A149E] | 1.09
IRTDAYVQAMT [RPE65_Y89_R91Q] | 0.89
MSIWPYLQKID [MFSD8_Y63] | 0.838
NGRTGYVLQPE [PLCG2_Y1036] | 0.793
DGKFSYLKVGH [GRM3_Y480_G475D_YF] | 0.838
YRIGPYQPNVP [MATR3_Y784] | 0.765

What follows are sequences tested against SHP2-C SH2 in the same assay as above.

Sequence | SH2 binding enrichment
RSFSPCDFQPC [TNS1_Y796_Y796C_YF] | 0.602
GESVSYLFSHV [PRPS1_Y311] | 2.31
ASELGYVFQAI [UROD_Y133] | 0.475
GFEVVYVTEPI [HSP90AB1_Y512_M513V] | 0.454
FKIFRYTLNDN [FN1_Y1975_L1974R_YF] | 0.958
SVTCTYSPALT [TP53_Y126_N131T] | 0.474
AALKLYHVSDS [VIL1_Y256] | 1.18
TFHNTYHSQMR [IL1RAPL1_Y615] | 0.597
DGLASYLDKVR [KRT12_Y139_R135G] | 0.737
LSIQTYSALNF [DES_Y423_P419S] | 1.43
TPLSAYQIPRT [GAB2_Y324] | 0.853
ADNQRYAFMPL [TMEM87B_Y460_N456D] | 0.649
TGILLYGLASR [QARS1_Y57] | 0.803
TVLEPYADPYY [ZC3H18_Y367] | 0.262
WQQQSYLDSGS [CTNNB1_Y30_I35S] | 0.582
DPHQQYFIAMD [TBX15_Y159_YF] | 0.71
VMIYAYLLHRG [PTEN_Y138_C136Y] | 0.741

Sequence | SH2 binding enrichment
SGPRRYNIAAL [TTR_Y125_T126N] | 0.551
EQLRAYLEGEC [HLA-C_Y183_T187E] | 0.664
HQNGTYGLHQD [SGSH_Y89_M88T] | 0.666
KYVKMCDNHQL [MYO9A_Y203_Y203C] | 0.921
RLLVLYPWTQR [HBB_Y36_V35L] | 1.75
IGMSSYVMLAS [GGCX_Y301_F299S] | 1.79
DTCPPYVLSQV [GJB4_Y237_G242V] | 0.797
TGTQLYGRFGS [ITGA2B_Y384] | 0.569
NPSYNYEIVNQ [DYNC1H1_Y3379_R3384Q] | 0.348
SFLSYYTSHVQ [NEFL_Y443_P440L] | 3.81
DDKQPYEKKAE [HMGB1_Y144_A149E] | 0.756
IRTDAYVQAMT [RPE65_Y89_R91Q] | 0.662
MSIWPYLQKID [MFSD8_Y63] | 0.997
NGRTGYVLQPE [PLCG2_Y1036] | 0.644
DGKFSYLKVGH [GRM3_Y480_G475D_YF] | 0.671
YRIGPYQPNVP [MATR3_Y784] | 0.883

Each sequence was assayed against c-Src SH2 in the same assay as above.

Sequence | SH2 binding enrichment
RSFSPCDFQPC [TNS1_Y796_Y796C_YF] | 0.693
GESVSYLFSHV [PRPS1_Y311] | 0.566
ASELGYVFQAI [UROD_Y133] | 0.771
GFEVVYVTEPI [HSP90AB1_Y512_M513V] | 0.495
FKIFRYTLNDN [FN1_Y1975_L1974R_YF] | 0.548
SVTCTYSPALT [TP53_Y126_N131T] | 0.436
AALKLYHVSDS [VIL1_Y256] | 0.434
TFHNTYHSQMR [IL1RAPL1_Y615] | 0.682
DGLASYLDKVR [KRT12_Y139_R135G] | 0.437
LSIQTYSALNF [DES_Y423_P419S] | 1.34
TPLSAYQIPRT [GAB2_Y324] | 0.792
ADNQRYAFMPL [TMEM87B_Y460_N456D] | 2.15
TGILLYGLASR [QARS1_Y57] | 0.497
TVLEPYADPYY [ZC3H18_Y367] | 1.29
WQQQSYLDSGS [CTNNB1_Y30_I35S] | 0.481
DPHQQYFIAMD [TBX15_Y159_YF] | 0.655
VMIYAYLLHRG [PTEN_Y138_C136Y] | 0.806

Sequence | SH2 binding enrichment
SGPRRYNIAAL [TTR_Y125_T126N] | 0.419
EQLRAYLEGEC [HLA-C_Y183_T187E] | 0.502
HQNGTYGLHQD [SGSH_Y89_M88T] | 0.401
KYVKMCDNHQL [MYO9A_Y203_Y203C] | 0.75
RLLVLYPWTQR [HBB_Y36_V35L] | 1.52
IGMSSYVMLAS [GGCX_Y301_F299S] | 1.43
DTCPPYVLSQV [GJB4_Y237_G242V] | 0.624
TGTQLYGRFGS [ITGA2B_Y384] | 0.418
NPSYNYEIVNQ [DYNC1H1_Y3379_R3384Q] | 0.642
SFLSYYTSHVQ [NEFL_Y443_P440L] | 2.51
DDKQPYEKKAE [HMGB1_Y144_A149E] | 0.736
IRTDAYVQAMT [RPE65_Y89_R91Q] | 0.617
MSIWPYLQKID [MFSD8_Y63] | 0.71
NGRTGYVLQPE [PLCG2_Y1036] | 0.496
DGKFSYLKVGH [GRM3_Y480_G475D_YF] | 0.421
YRIGPYQPNVP [MATR3_Y784] | 0.77
